Data reported in patent US20240115706A1 (LG CHEM, published 2024).

T1: monkey GUCY2C-rCD4 fusion protein (Macaca fascicularis (crab-eating …, limits assumed))
T1 construct: Prepared by the same method as the human antigen; also called Cy-GUCY2C-rCD4; monkey GUCY2C recombinant antigen
T1 chain: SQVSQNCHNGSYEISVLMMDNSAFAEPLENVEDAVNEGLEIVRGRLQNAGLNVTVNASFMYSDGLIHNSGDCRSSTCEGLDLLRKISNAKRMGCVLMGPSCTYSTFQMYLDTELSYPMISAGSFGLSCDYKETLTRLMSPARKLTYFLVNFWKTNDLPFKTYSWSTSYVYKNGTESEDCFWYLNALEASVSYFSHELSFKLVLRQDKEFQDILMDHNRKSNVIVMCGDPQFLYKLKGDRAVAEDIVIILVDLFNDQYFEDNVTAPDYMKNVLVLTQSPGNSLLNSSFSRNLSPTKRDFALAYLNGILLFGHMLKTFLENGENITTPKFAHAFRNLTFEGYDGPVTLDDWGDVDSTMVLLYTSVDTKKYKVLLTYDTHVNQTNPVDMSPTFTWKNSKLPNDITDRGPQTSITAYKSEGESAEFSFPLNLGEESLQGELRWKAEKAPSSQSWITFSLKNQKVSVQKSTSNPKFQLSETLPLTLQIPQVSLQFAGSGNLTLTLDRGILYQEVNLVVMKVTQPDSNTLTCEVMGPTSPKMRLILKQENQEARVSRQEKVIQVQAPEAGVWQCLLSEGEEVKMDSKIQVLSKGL


Columns and labels:
[1] = molecular target: T2, human GUCY2C-rCD4 fusion protein (Homo sapiens (human); Rattus norvegicus, biotinylated (site not given)); experiment: SPR (Sierra SPR-32), scFv on protein G, antigen 800-12.5 nM, 25 C
T2 construct: GUCY2C conjugated/fused with CD4; also called Hu-GUCY2C-rCD4; human GUCY2C recombinant antigen
Description: Furthermore, the affinity to the GUCY2C antigen of the 18 kinds of scFvs produced in Example 1 was measured by SPR (Surface plasmon resonance) analysis.
SPR assay was performed with association time 2 min and dissociation time 10 min under the condition of 25 degrees of Celsius using MASS2 (Sierra SPR-32; Bruker). The data were analyzed with Software R3.

[2] = molecular target: T2, human GUCY2C-rCD4 fusion protein; experiment: ELISA (DELFIA), antigen on streptavidin plate, scFv culture solution, Eu-anti-tag Ab
Description: (§1) More specifically, GUCY2C-rCD4 fusion protein, in which the prepared human GUCY2C (SEQ ID NO: 112), monkey GUCY2C (SEQ ID NO: 114), and mouse GUCY2C (SEQ ID NO: 113) were fused, respectively, was bound to a place coated with streptavidin in a Nunc Maxisorp™96 well plate. After removing all the synthetic proteins not combined with washing buffer, the anti-GUCY2C scFV obtained in the culture solution was incubated in each well. After that, the affinity was measured by reading signals DELFIA enhanced using Eu-anti-tag Ab.

[3] = molecular target: T2, human GUCY2C-rCD4 fusion protein; experiment: ranking ELISA (DELFIA), 5 nM scFv on anti-FLAG, biotinylated antigen, streptavidin-Eu
Description: (§2) More specifically, after coating an anti-FLAG antibody in a MaxiSorb plate and binding by adding scFvs obtained previously, the remaining scFvs were removed by a washing process. Here, a biotinylated human-GUCY2C-rCD4 protein was incubated and combined, and then the affinity to the antigen was measured by reading signals by DELFIA enhancement with color development through streptavidin-Europlum.

[4] = molecular target: T2, human GUCY2C-rCD4 fusion protein; experiment: ranking ELISA (DELFIA), 50 nM scFv on anti-FLAG, biotinylated antigen, streptavidin-Eu
Description: as §2

[5] = molecular target: T1, monkey GUCY2C-rCD4 fusion protein; experiment: ELISA (DELFIA), antigen on streptavidin plate, scFv culture solution, Eu-anti-tag Ab
Description: as §1

[6] = molecular target: T3, GUCY2C on the cell surface (T84 colon carcinoma cells; HT29-GUCY2C cells) (human, UniProt P25092 24-1073); experiment: flow cytometry, scFv(-Fc) at 10 ug/mL on GUCY2C-positive T84 cells, detected with IgG-Fc-PE Ab (FL2-H)
T3 construct: whole, on cells; also called GUCY2C expressing T84 cells; HT29 GCC cells
Description: Using cells naturally expressing GUCY2C, whether 18 kinds of scFvs produced in Example 1 could actually detect GUCY2C expression on the cell surface was confirmed. For this, a GUCY2C positive cancer cell, T84 colon carcinoma cell (ATCC® CCL248™) was used.
After separating the two cell lines using trypsin-EDTA, they were placed in FACS buffer (1×PBS+2% BSA). 10 ug/mL of each of the 18 kinds of scFvs and positive control group, 5F9 scFv was cultured with T84 and T-47D cells on ice for 1 hour. The scFv combined to cells was detected using 5 ug/mL IgG-Fc-PE Ab (BioLegend; 409304). The cells were cultured with ToPro®3 (live/dead stain) and then red with a flow cytometer.

| Binder | Kd [1] | Binding ELISA signal [2] | Affinity Ranking ELISA (5 nM) signal [3] | Affinity Ranking ELISA (50 nM) signal [4] | Binding ELISA signal [5] | binding result [6] |
| --- | --- | --- | --- | --- | --- | --- |
| scFv A05 (scFv, also called 2427_01_B07) scFv: QVQLVQSGAEVKKPGSSVKVSCKASGGTFSSYTITWVRQAPGQGLEWMGRIIPVLGIANYAQKFQGRVTITADKSTSTAYMELSSLRSEDTAVYYCARDYSSSWNSMDVWGQGTLVTVSSGGGGSGGGGSGGGASQSGLTQPRSVSGSPGQSVTISCTGTSSDVGGYNYVSWYQQHPGKAPKLMIYDVSKRPSGVPDRFSGSKSGNTASLTVSGLHAEDEADYYCSSYAGSNNFVFGTGTKVTVL | 4390 nM | 43000 | 18300 | 131000 | – | – |
| scFv A06 (scFv, also called 2427_01_C01) scFv: QVQLVQSGAEVKKPGSSVKVSCKASGGTFGSYTISWVRQAPGQGLEWMGRIIPILGIANYAQKFQGRVTITADKSTSTAYMELSSLRSEDTAVYYCARDYSSSWNSMDVWGQGTLVTVSSGGGGSGGGGSGGGASQSGLTQPRSVSGSPGQSVTISCTGTSSDVGAYNYVSWYQQHPGKAPKLMIYEVSKRPSGVPDRFSASKSGNTASLTVSGLQAEDEADYYCSSYAGSNNWVFGGGTKLTVL | 716 nM | 63100 | 35100 | 185000 | – | – |
| scFv A12 (scFv, also called 2433_01_G08) scFv: EVQLVQPGAEVKKPGSSVKVSCKASGGTLSSYAISWVRQAPGQGLEWMGRIIPILGITNYAQKFQGRVTITADKSTSTAYMELSSLRSEDTAVYFCARDQRPASMDVWGQGTLVTVSSGGGGSGGGGSGGGASQSELTQPASVSGSPGQSITISCTGTSSDVGGYIYVSWYQQHPGKVPKLMIHDVSHRPSGVSNRFSGSRSGNTASLTISGLQAEDEADYFCSSYTSSNNYVFGTGTKVTVL | 297 nM | 38200 | 28100 | 151000 | – | – |
| scFv A04 (scFv, also called 2427_01_B02) scFv: EVQLVQPGAEVKKPGSSVKVSCKASGGTLSSYAISWVRQAPGQGLEWMGRIIPILGITNYAQKFQGRVTITADKSTSTAYMELSSLRSEDTAVYFCARDQRPASMDVWGQGTLVTVSSGGGGSGGGGSGGGASQSELTQPASVSGSPGQSITISCTGTSSDVGGYIYVSWYQQHPGKVPKLMIHDVSHRPSGVSNRFSGSRSGNTASLTISGLQAEDEADYFCSSYTSSNNYYFGTGTKVTVL | 311 nM | 51000 | 30400 | 173000 | – | – |
| scFv A02 (scFv, also called 2427_01_A08) scFv: EVQLVQPGAEVKKPGSSVKVSCKASGGTLSSYAISWVRQAPGQGLEWMGRIIPILGITNYAQKFQGRVTITADKSTSTAYMELSSLRSEDTAVYFCARDQRPASMDVWGQGTLVTVSSGGGGSGGGGSGGGASQSELTQPASVSGSPGQSITISCTGTSSDVGGYIYVSWYQQHPGKVPKLMIHDVSHRPSGVSNRFSGSRSGNTASLTISGLQAEDEADYFCSSYAGSNNYVFGTGTKVTVL | 743 nM | 48300 | 33400 | 168000 | – | – |
| scFv A03 (scFv, also called 2427_01_A12) scFv: QVQLVQSGAEVKKPGSSVKVSCKASGGTFSSYTISWVRQAPGQELEWMGRIIPILGIANYAQKFQGRVTITADKSTSTAYMELSSLRSEDTAVYYCARDYSSSWNSMDVWGQGTLVTVSSGGGGSGGGGSGGGASQSGLTQPPSASGSPGQSVTISCTGTSSDIGYYHYVSWYQQHPGKAPKLMIYEDSKRPSGISNRFSGSKSGTTASLTVSGLQAEDEAHYYCSSFTSRSTWVFGGGTQLTVL | 219 nM | 59200 | 36000 | 199000 | – | – |
| scFv A10 (scFv, also called 2432_01_D08; D08) scFv: EVQLVQSGAEVKKPGSSVKVSCKASGGTFSSYAISWVRQAPGQGLEWMGGIIPIFGTANYAQKFQGRVTITADESTSTAYMELSSLRSEDTAVYYCARTRYIWGSYRAYGMDVWGQGTMVTVSSGGGGSGGGGSGGGASDIQMTQSPSSMSASVGDRVTITCRASQSISSHLNWYQQLPGNAPTLLIYYASNLQSGVPSRFSGSGSGTDFTLTISSLQPDDFATYYCQQSISLPYTFGQGTKVEIK | 48 nM | 55400 | 81200 | 243000 | 37200 | binds |
| scFv B07 (scFv, also called 2436_02_F10) scFv: EVQLVQSGAEVKRPGSSVKVSCKASGYTFTSYYMHWVRQAPGQGLEWMGIINPSGGSTSYAQKFQGRVTMTRDTSTSTVYMELSSLRSEDTAVYYCAAGTYSSGWTIDYWGQGTTVTVSSGGGGSGGGGSGGGASDIVMTQSPLSLPVTLGQPASISCRSSQSLVYTDGNTYLNWFQQRPGQSPRRLIYKVSNRDSGVPDRFSGSGSGTDFTLKISRVEAEDVGIYYCMHSKQWPPTFGGGTKVEIK | 293 nM | 68600 | 25900 | 139000 | – | – |

The next lines start with the values.

| Kd [1] | Binding ELISA signal [2] | Affinity Ranking ELISA (5 nM) signal [3] | Affinity Ranking ELISA (50 nM) signal [4] | Binding ELISA signal [5] | binding result [6] | Binder |
| --- | --- | --- | --- | --- | --- | --- |
| 2860 nM | 34400 | 12500 | 105000 | – | – | scFv B10 (scFv, also called 2436_02_G01) scFv: EVQLVQSGAEVKKPGSSVKVSCKASGGTFSSYAISWVRQAPGQGLEWMGGIIPIFGTANYAQKFQGRVTITADKSTSTAYMELSSLRSEDTAVYYCARGHYYYMDVWGQGTTVTVSSGGGGSGGGGSGGGASDIVMTQSPATLSVSPGEGATLSCRASQSVSSNLAWYQQKPGRAPRLLIYGASTRATGIPARFSGSGSGTEFTLTISSLQSEDFAVYYCQQYNNWPTFGGGTKLEIK |
| 1150 nM | 37500 | 3090 | 29500 | 21600 | – | scFv C01 (scFv, also called 2437_02_H05) scFv: QMQLVQSGAEVKKPGSSVKVSCKASGGTFSSYAISWVRQAPGQGLEWMGGIIPIFGTANYAQKFQGRVTITADESTSTAYMELSSLRSEDTAVYYCVRGYSSIYYYYGMDVWGQGTMVTVSSGGGGSGGGGSGGGASQSGLTQPRSVSGSPGQSVTISCTGTSSDVGGYNYVSWYQQHPGKAPKLMIYDVSKRPSGVSDRFSGSKSGNTASLTISGLQAEDEADYYCGSYTSDGTLVFGGGTKLTVL |
| 1480 nM | 49500 | 11000 | 86300 | 32300 | – | scFv C02 (scFv, also called 2437_02_H08) scFv: QVQLVQSGAEVKKPGSSVKVSCKASGGTFSSYTISWVRQAPGQGLEWMGRIIPILGIANYAQKFQGRVTITADKSTSTAYMELSSLRSEDTAVYYCARDRSYNWLDPWGRGTLVTVSSGGGGSGGGGSGGGASQSALTQPVSVSGSPGQSITISCTGTISDVGDYNYVSWYQQHPGKAPKLMIYDVNNRPSGVSNRFSGSKSGNTASLTISGLQAEDEADYYCSSYTSSSTLVFGGGTKLTVL |
